Ends that are not written are not given here. Peptide text beside a SMILES is read from it. * marks the point of attachment. 5TAMRA = CN(C)c1ccc2c(c1)Oc1cc(N(C)C)ccc1C21OC(=O)c2cc(C(=O)*)ccc21
Columns and labels:
bEnd.3 cells = test: Translocation study based on fluorescence intensity measurement (Transwell, non-contact co-culture with rat astrocytes); assay type: in vitro ADME, mouse; settings: for Pe ("real" endothelial permeability): 1/Pe = 1/Papp,bEnd.3+filter − 1/Papp,filter, fluorescence; for Papp,F (apparent permeability through filter): cell-free collagen-coated polyester Transwell filter, 0.4 μm pores, fluorescence Ex 535/Em 585 nm
Protocol: (§1) For the translocation studies, an in vitro contact and non-contact co-culture model was used. Forty thousand bEnd.3 cells were seeded on the upper side of the collagen-coated Transwell insert and maintained in cDMEM for 24 hours (contact co-culture) or immediately transferred into a 12-well plate in which rat astrocytes were grown for at least three weeks (non-contact co-culture). In the case of contact co-culture, 24 hours after plating the bEnd.3 approx. 150,000 rat astrocytes were seeded on the bottom side of the flipped Transwell inserts, which was coated with 5 μg/ml poly-L-lysine (P1524, Sigma-Aldrich), and incubated for 2 hours at 37°C. The inserts were then flipped back to the original side and placed into a 12-well plate with rat astrocytes. The cells were cultured in cDMEM at 37°C with 5% CO2/95% air and saturated humidity, and the experiments were performed 4.5–5 days post-seeding of bEnd.3 cells. The medium was switched to phenol red-free cDMEM the day before the experiment.
(§2) These experiments were performed using the bEnd.3 cells that were cultured with rat astrocytes in a non-contact co-culture model and with cell-free filters as negative controls. On the day of the experiment, the inserts were transferred to a new astrocyte-free 12-well plate, and the medium was changed on both the apical and basolateral sides. The apical side of the membrane was exposed to 10 μM MTfp or GYR for 2 hours while the plates were gently shaken to overcome unstirred water-layer effects. After the 2 hours exposure time, 150 μL sample was taken from both apical and basolateral compartments, and the fluorescence intensity was read by a CLARIOstar® Plus microplate reader (BMG Labtech) (λExc = 535 nm, λEm = 585 nm, Bandwidth = 20 and 30 nm, respectively). The translocation of the peptides is presented as permeability coefficient (a concentration independent transport parameter) and was determine by using the clearance principle.
(§3) The following equations [27] were used to calculate the permeability coefficient: Papp[cm/s]=B/T⋅vb/A⋅t⋅60 (1) Where Papp is the apparent permeability, B is the relative fluorescence unit (RFU) at time t, T is the top chamber RFU at time 0 (constant), Vb is the volume of the bottom channel [ml], A is the cross-section area of the membrane [cm^2], and t is the time [min].
(§4) The translocation experiments were performed three times in technical triplicates, and the data are represented as mean (SD).

[1] = as above; assay type: in vitro ADME, mouse; settings: mouse; bEnd.3 non-contact co-culture with rat astrocytes, polyester Transwell 0.4 μm; 10 μM apical, 2 h, shaken, apical to basolateral; fluorescence (RFU values) Ex 535/Em 585 nm; mean (SD) of three independent experiments with triplicates; read-out: Papp, bEnd.3+F (apparent permeability through bEnd.3 grown on filter)
Protocol: as §1, §2, §3, §4

[2] = target: T1, LRP-1 purified from human placenta (Homo sapiens, UniProt Q07954); test: SPR binding to immobilized LRP-1 (Biacore 3000, CM5 chip); settings: unlabeled peptide, 0.25-4 μM, 5 μL/min, 25°C, HEPES buffer pH 7.4, Langmuir 1:1 global fit
T1 construct: LRP-1 was purified from human placenta according to a previously described protocol; from tissue; host or cells: human placenta
T1 sequence (Q07954 20-4544): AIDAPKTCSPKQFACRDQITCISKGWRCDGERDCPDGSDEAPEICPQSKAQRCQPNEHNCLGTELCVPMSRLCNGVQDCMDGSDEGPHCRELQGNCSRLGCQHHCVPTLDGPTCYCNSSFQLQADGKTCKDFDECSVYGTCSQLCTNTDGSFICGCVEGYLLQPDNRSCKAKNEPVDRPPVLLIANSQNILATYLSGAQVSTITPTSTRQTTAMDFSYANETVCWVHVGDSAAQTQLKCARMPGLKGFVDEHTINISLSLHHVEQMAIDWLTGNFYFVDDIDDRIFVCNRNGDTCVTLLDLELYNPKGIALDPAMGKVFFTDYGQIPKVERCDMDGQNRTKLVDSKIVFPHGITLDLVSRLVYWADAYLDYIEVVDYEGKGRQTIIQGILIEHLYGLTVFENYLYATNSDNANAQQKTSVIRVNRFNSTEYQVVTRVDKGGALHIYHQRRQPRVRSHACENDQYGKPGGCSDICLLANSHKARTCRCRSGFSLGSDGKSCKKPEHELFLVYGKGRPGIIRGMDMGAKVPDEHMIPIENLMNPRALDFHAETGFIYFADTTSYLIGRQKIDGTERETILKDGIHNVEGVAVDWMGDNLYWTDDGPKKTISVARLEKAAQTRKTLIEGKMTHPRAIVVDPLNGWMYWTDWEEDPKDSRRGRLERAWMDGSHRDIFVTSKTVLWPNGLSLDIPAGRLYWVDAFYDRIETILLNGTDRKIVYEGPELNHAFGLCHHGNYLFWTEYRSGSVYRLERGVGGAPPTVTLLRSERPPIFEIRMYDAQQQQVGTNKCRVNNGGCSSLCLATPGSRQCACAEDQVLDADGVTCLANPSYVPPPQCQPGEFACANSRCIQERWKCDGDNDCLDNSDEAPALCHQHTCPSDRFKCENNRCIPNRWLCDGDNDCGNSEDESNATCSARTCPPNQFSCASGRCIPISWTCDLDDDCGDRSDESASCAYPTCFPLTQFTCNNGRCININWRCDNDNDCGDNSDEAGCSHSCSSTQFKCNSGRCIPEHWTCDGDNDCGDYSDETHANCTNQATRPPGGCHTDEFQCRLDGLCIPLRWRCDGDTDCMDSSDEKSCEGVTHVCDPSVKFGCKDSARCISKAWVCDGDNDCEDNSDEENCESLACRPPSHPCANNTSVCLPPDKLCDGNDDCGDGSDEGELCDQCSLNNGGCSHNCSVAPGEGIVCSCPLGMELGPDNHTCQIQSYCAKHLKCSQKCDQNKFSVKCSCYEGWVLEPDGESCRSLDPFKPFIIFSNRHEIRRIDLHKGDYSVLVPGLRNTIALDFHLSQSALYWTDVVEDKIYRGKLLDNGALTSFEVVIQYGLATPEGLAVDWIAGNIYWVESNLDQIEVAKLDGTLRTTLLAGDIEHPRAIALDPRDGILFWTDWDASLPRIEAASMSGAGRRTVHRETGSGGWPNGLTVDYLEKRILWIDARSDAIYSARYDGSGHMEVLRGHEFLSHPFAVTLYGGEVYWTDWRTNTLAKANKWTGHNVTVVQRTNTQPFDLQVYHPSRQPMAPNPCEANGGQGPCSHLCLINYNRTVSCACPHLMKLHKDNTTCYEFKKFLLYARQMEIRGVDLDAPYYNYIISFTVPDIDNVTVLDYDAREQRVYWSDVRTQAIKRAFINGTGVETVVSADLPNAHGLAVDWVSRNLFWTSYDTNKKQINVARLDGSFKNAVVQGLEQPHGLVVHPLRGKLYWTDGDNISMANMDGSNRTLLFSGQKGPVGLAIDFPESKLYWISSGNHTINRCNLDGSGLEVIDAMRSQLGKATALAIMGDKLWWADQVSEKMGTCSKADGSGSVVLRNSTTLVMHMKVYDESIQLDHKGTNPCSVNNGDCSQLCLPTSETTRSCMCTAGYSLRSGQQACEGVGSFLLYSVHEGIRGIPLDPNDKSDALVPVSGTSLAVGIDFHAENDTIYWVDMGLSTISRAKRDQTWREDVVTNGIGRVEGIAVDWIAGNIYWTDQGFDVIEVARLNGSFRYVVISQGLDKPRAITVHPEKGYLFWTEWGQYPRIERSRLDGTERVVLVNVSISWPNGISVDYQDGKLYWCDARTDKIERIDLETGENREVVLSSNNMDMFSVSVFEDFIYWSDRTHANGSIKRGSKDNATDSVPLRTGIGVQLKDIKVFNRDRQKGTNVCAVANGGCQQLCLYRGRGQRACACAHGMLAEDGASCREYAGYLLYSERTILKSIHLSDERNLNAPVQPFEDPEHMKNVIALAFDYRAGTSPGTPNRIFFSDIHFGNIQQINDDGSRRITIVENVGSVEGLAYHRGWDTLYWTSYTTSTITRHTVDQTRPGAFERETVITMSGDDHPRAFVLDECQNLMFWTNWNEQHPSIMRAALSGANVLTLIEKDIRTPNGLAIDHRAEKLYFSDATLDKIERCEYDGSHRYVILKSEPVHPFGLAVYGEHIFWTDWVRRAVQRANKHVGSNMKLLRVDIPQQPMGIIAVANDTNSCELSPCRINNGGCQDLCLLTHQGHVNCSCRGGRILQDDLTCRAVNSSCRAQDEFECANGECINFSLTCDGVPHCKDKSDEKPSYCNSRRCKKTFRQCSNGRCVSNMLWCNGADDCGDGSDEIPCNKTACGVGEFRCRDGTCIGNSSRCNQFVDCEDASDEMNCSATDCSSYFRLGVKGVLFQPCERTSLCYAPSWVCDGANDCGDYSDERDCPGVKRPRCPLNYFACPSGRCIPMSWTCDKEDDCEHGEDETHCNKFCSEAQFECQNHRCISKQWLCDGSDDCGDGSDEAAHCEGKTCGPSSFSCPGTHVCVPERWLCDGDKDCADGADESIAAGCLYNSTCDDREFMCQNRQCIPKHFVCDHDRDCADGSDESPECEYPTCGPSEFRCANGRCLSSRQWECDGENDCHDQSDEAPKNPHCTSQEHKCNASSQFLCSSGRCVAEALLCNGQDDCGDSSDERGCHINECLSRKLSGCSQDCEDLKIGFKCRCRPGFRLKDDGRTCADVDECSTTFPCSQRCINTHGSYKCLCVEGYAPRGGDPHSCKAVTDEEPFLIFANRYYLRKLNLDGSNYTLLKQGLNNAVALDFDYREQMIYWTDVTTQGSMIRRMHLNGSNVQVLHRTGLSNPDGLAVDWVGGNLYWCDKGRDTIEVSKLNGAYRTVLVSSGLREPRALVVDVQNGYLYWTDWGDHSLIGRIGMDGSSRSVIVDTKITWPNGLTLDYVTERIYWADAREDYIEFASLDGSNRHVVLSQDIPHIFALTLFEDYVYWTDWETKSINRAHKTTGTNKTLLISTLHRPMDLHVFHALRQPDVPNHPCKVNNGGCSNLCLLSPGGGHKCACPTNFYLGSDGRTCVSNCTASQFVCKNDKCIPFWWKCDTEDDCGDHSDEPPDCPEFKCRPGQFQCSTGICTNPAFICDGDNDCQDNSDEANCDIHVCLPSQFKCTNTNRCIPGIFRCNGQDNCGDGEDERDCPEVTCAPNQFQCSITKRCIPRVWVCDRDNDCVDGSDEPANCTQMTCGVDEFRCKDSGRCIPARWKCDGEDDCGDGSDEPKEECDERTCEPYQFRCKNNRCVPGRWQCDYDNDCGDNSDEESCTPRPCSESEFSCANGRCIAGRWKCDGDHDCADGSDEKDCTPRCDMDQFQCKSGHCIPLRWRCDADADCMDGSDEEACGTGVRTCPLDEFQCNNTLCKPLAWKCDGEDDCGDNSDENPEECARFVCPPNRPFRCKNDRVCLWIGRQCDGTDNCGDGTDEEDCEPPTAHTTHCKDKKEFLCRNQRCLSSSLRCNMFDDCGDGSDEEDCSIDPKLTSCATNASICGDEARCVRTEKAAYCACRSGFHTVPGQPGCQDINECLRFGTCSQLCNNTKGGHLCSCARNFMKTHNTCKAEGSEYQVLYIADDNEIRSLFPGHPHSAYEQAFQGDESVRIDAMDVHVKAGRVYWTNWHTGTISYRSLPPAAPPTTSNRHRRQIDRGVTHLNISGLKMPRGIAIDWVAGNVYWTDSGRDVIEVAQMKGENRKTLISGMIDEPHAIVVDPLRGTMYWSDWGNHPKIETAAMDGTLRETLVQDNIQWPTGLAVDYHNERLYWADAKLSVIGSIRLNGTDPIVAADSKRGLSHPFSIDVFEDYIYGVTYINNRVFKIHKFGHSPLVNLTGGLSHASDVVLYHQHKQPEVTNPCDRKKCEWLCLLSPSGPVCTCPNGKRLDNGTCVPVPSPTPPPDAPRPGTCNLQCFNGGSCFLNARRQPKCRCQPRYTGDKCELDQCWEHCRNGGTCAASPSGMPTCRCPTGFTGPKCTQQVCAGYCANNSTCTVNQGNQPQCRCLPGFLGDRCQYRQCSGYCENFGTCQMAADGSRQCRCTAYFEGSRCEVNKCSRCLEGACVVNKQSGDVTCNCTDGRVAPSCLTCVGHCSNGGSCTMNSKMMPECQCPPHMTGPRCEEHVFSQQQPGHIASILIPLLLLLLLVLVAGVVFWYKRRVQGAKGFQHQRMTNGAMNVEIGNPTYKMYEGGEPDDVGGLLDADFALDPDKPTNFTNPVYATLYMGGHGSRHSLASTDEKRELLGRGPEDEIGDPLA
Protocol: (§5) The binding affinity analysis of the MTf and GYR peptides was performed using the Biacore 3000 system (Cytiva, UK) equipped with a CM5 sensor chip. The sensor chip was initially activated by injection of 0.2 M 1-ethyl-3-(3-dimethylaminopropyl) carbodiimide hydrochloride and 0.05 M N-hydroxysuccinimide in water. Recombinant human and mouse TfR protein (SinoBiological, Inc., Beijing, PRC) was purchased with a His-tag and immobilized on the sensor chip at 58 fmol/mm^2. LRP-1 was purified from human placenta according to a previously described protocol and immobilized to densities of 0.025 fmol/mm^2. The remaining carboxylate groups were blocked with 1 M ethanolamine. The MTf and GYR peptides were injected for binding to the immobilized TfR or LRP-1 protein at 5 μL/min at 25°C in 10 mM HEPES, 150 mM NaCl, 1.5 mM CaCl2, 1 mM EGTA, and 0.005% Tween 20 (pH 7.4) at five different concentrations (0.25 μM, 0.5 μM, 1 μM, 2 μM and 4 μM). The reference flow channel (FC1) was activated and blocked but without immobilized TfR or LRP-1. The dissociation constant (KD) values were calculated using the BIAevaluation 4.1 software (Cytiva, UK) using the predefined Langmuir 1:1 interaction model and fitted using a drifting baseline with global fitting to the curves of the considered concentration range.

[3] = target: T2, Recombinant mouse TfR protein (mTfR) (Mus musculus, UniProt Q62351); test: SPR binding to immobilized mouse TfR (Biacore 3000, CM5 chip); settings: unlabeled peptide, 0.25-4 μM, 25°C, pH 7.4, Langmuir 1:1 global fit
T2 construct: His-tag; purchased SinoBiological, Inc., Beijing, PRC
Protocol: as §5

[4] = 10 μM apical, 2 h, mean (SD) of three independent experiments with triplicates
[5] = alternative calculation, 10 μM apical, 120 min
[6] = 10 μM apical, 2 h, shaken, apical to basolateral, mean (SD) of three independent experiments with triplicates

Kd [2] [µM] | Molecule | Pe ("real" endothelial permeability) (bEnd.3 cells; [4]) | Papp,F (apparent permeability through filter) (bEnd.3 cells; [6]) | other results
– | CC[C@H](C)[C@H](NC(=O)[C@H](CC(N)=O)NC(=O)[C@H](Cc1c[nH]cn1)NC(=O)[C@@H](NC(=O)[C@@H]1CCCN1C(=O)[C@H](CCCNC(=N)N)NC(=O)[C@H](Cc1ccc(O)cc1)NC(=O)CN)C(C)C)C(=O)N[C@@H](CCCNC(=N)N)C(=O)NCC(=O)N[C@@H](Cc1c[nH]cn1)C(=O)N[C@@H](Cc1c[nH]c2ccccc12)C(=O)N[C@@H](C)C(=O)N1CCC[C@H]1C(=O)NCC(=O)N[C@@H](CCCCNC(=O)c1ccc2c(c1)C(=O)OC21c2ccc(N(C)C)cc2Oc2cc(N(C)C)ccc21)C(N)=O [GYR-TAMRA] (H-GYRPVHNIRGHWAPGK(5TAMRA)-NH2) | 15.17 (1.83) x 10^−6 cm/s | 12.82 (3.11) x 10^−6 cm/s | Papp (bEnd.3 + filter), calculated concentrations based on a standard curve (bEnd.3 cells; [5]): 6.71 ×10⁻⁶ cm/s; Papp (bEnd.3 + filter), calculated final basal concentration and the 10 µM initial apical concentration (bEnd.3 cells; [5]): 6.31 ×10⁻⁶ cm/s; Papp, bEnd.3+F (apparent permeability through bEnd.3 grown on filter) (bEnd.3 cells; bEnd.3 non-contact co-culture with rat astrocytes, polyester Transwell 0.4 μm, 10 μM apical, 2 h, shaken, apical to basolateral, fluorescence (RFU values) Ex 535/Em 585 nm, mean (SD) of three independent experiments with triplicates): 6.64 (1.16) x 10^−6 cm/s
– | CC[C@H](C)[C@H](NC(=O)[C@H](CCCNC(=N)N)NC(=O)[C@@H](NC(=O)[C@@H](NC(=O)[C@H](Cc1ccccc1)NC(=O)[C@@H]1CCCN1C(=O)[C@@H](NC(=O)[C@H](CC(=O)O)NC(=O)CNC(=O)[C@H](CCCNC(=N)N)NC(=O)[C@H](CC(N)=O)NC(=O)[C@H](CCC(=O)O)NC(=O)[C@@H](NC(=O)[C@H](CC(C)C)NC(=O)[C@H](CS)NC(=O)[C@H](CCCNC(=N)N)NC(=O)[C@H](Cc1ccccc1)NC(=O)c1ccc2c(c1)C(=O)OC21c2ccc(N(C)C)cc2Oc2cc(N(C)C)ccc21)C(C)C)C(C)C)C(C)C)[C@@H](C)O)C(=O)N[C@@H](CCCNC(=N)N)C(N)=O [MTfp-TAMRA] (5TAMRA-FRCLVENRGDVPFVTRIR-NH2) | 4.57 (0.64) x 10^−6 cm/s | 5.86 (1.27) x 10^−6 cm/s | Papp A→B at 2 h, 10 µM [1]: 2.55 ×10⁻⁶ cm/s
0.00057 | FRCLVENRGDVPFVTRIR-NH2 [MTfp] | – | – | –
0.1 | GYRPVHNIRGHWAPGK-NH2 [GYR] | – | – | Kd [3]: 1000 µM; Remaining peptide most likely trapped inside the filter membrane or in the endothelial cell layer (bEnd.3 cells; 100% minus collected): 1.7%
